Laboratory results reported in PMC9482650, “Quantitative fragmentomics allow affinity mapping of interactomes” (Nature Communications, 2022).

Assays:
Assay in all cases: holdup assay
Parameters in all cases: key: below the threshold = too weak to quantify, mostly under pKd 3.1 to 4
Settings in all cases: plain residues with an end cap or a label only (N-terminal biotin on a linker: ado-ado)
DLG1_1, Q12959 = target: DLG1_1, Q12959
DLG4_3, P78352 = target: DLG4_3, P78352
GRIP2_7, Q9C0E4 = target: GRIP2_7, Q9C0E4
HTRA1, Q92743 = target: HTRA1, Q92743
Inadl_10, Q8NI35 = target: Inadl_10, Q8NI35
PDZRN4_1, Q6ZMN7 = target: PDZRN4_1, Q6ZMN7
LNX1_3, Q8TBB1 = target: LNX1_3, Q8TBB1
MAGI2_4, Q86UL8 = target: MAGI2_4, Q86UL8
FRMPD3, Q5JV73 = target: FRMPD3, Q5JV73
DLG4_2, P78352 = target: DLG4_2, P78352
PDZD7_3, Q9H5P4 = target: T1, PDZD7_3, Q9H5P4
T1 sequence (Q9H5P4 857-944, limits assumed, looked up): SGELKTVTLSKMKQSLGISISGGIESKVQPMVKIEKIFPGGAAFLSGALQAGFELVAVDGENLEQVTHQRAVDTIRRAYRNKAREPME

IL16_1, Q14005 = target: IL16_1, Q14005
MPDZ_5, O75970 = target: T2, MPDZ_5, O75970
T2 sequence (O75970 695-796, limits assumed, looked up): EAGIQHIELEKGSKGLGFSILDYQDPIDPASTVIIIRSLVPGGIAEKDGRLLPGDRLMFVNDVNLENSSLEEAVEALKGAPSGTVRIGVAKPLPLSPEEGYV

GRIP1_4, Q9Y3R0 = target: T3, GRIP1_4, Q9Y3R0
T3 sequence (Q9Y3R0 467-571, limits assumed, looked up): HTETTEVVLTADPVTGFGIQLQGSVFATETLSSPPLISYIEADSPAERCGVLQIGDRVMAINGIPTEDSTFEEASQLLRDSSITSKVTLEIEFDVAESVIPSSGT

IL16_4, Q14005 = target: IL16_4, Q14005
NHERF3_3, Q5T2W1 = target: T4, NHERF3_3, Q5T2W1
T4 sequence (Q5T2W1 238-333, limits assumed, looked up): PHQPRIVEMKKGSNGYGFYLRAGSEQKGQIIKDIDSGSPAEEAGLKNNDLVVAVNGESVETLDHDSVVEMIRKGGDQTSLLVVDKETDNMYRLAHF

DLG2_2, Q15700 = target: DLG2_2, Q15700
HTRA3, P83110 = target: T5, HTRA3, P83110
T5 sequence (P83110 354-453, limits assumed, looked up): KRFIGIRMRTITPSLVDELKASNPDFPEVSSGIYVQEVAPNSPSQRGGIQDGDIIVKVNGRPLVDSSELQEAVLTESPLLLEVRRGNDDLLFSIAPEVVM

PDLIM1, O00151 = target: PDLIM1, O00151
LDB3, O75112 = target: LDB3, O75112
APBA2_2, Q99767 = target: T6, APBA2_2, Q99767
T6 sequence (Q99767 654-744, limits assumed, looked up): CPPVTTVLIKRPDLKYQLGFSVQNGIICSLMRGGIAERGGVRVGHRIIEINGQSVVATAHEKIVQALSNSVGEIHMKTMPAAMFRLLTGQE

ARHGEF12, Q9NZN5-2 = target: ARHGEF12, Q9NZN5-2
LIN7C, Q9NUP9 = target: T7, LIN7C, Q9NUP9
T7 sequence (Q9NUP9 88-185, limits assumed, looked up): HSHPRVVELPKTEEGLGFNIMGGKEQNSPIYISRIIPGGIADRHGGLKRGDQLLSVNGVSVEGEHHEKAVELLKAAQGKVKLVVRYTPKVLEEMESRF

AHNAK1, Q09666 = target: AHNAK1, Q09666
LAP2, Q96RT1 = target: LAP2, Q96RT1
LIN7B, Q9HAP6 = target: T8, LIN7B, Q9HAP6
T8 sequence (Q9HAP6 88-185, limits assumed, looked up): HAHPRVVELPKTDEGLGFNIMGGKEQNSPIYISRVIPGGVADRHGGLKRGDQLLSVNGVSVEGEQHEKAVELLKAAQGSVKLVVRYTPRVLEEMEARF

APBA3_1, O96018 = target: T9, APBA3_1, O96018
T9 sequence (O96018 389-490, limits assumed, looked up): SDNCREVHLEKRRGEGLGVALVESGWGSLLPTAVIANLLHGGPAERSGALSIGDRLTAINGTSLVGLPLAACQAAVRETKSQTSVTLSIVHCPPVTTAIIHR

Inadl_5, Q8NI35 = target: Inadl_5, Q8NI35
MAGI2_3, Q86UL8 = target: MAGI2_3, Q86UL8
Chain of MAGI2_3, Q86UL8 (Q86UL8 600-682): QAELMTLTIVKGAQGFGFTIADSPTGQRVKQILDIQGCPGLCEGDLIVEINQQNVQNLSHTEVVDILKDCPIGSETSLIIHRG

Chain of Inadl_10, Q8NI35 (Q8NI35 1673-1763): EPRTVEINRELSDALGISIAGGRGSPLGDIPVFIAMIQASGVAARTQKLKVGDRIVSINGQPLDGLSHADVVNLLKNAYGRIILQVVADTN
Chain of LAP2, Q96RT1 (Q96RT1 other isoform, or with tags, fused parts or gaps): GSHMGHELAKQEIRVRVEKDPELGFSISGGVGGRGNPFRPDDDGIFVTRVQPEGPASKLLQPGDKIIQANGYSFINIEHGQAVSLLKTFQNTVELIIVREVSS
Chain of GRIP2_7, Q9C0E4 (Q9C0E4 934-1023): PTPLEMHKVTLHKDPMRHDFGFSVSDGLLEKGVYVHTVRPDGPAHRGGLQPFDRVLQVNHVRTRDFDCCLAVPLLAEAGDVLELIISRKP
Chain of ARHGEF12, Q9NZN5-2 (Q9NZN5 other isoform, or with tags, fused parts or gaps): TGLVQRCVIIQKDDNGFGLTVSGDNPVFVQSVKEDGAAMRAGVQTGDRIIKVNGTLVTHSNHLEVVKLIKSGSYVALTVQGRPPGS
Chain of DLG4_3, P78352 (P78352 306-403): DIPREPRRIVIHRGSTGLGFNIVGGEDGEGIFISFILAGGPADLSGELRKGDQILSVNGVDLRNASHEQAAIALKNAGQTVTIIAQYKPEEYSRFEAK
Chain of LNX1_3, Q8TBB1 (Q8TBB1 500-596): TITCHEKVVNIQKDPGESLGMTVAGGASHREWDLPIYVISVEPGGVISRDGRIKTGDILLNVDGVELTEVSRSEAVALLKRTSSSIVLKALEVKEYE
Chain of DLG2_2, Q15700 (Q15700 189-283): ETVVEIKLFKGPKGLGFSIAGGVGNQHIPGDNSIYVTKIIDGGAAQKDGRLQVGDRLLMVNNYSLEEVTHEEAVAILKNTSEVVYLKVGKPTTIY
Chain of PDZRN4_1, Q6ZMN7 (Q6ZMN7 213-318): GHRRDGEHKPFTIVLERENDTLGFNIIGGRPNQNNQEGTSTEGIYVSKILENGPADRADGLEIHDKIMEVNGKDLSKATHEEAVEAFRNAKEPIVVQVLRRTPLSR
Chain of DLG4_2, P78352 (P78352 155-259): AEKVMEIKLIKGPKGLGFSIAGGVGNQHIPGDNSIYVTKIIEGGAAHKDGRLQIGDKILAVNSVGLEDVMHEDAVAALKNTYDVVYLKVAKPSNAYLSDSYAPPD
Chain of LDB3, O75112 (O75112 1-94): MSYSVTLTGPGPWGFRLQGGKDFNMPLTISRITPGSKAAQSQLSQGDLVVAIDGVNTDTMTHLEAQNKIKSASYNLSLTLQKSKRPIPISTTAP
Chain of Inadl_5, Q8NI35 (Q8NI35 673-780): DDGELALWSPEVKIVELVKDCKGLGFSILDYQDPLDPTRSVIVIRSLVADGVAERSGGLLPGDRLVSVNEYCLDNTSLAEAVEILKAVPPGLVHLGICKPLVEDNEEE
Chain of MAGI2_4, Q86UL8 (Q86UL8 772-865): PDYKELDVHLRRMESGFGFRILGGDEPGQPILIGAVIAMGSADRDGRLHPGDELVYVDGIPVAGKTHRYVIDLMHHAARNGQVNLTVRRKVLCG
Chain of FRMPD3, Q5JV73 (Q5JV73 12-100): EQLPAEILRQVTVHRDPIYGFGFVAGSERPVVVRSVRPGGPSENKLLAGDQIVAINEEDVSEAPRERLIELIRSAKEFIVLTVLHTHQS
Chain of PDLIM1, O00151 (O00151 1-87): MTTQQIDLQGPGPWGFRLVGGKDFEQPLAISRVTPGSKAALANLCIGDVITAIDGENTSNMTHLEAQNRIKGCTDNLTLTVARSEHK
Chain of HTRA1, Q92743 (Q92743 360-477): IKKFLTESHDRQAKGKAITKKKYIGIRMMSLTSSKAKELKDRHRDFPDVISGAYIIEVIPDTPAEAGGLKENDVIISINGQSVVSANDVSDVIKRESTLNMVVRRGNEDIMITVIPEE
Chain of IL16_1, Q14005 (Q14005 210-306): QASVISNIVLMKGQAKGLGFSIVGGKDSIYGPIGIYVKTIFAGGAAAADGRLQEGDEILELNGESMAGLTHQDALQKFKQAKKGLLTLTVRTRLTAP
Chain of AHNAK1, Q09666 (Q09666 4-100): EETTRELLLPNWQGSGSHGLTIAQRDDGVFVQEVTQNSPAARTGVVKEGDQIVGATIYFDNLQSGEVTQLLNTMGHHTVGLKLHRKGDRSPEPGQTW
Chain of IL16_4, Q14005 (Q14005 1229-1329): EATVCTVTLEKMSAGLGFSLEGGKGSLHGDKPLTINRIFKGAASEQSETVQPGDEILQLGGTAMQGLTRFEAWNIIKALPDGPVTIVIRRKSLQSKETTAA

Binder	pKd (DLG1_1, Q12959)	pKd (DLG4_3, P78352)	pKd (GRIP2_7, Q9C0E4)	pKd (HTRA1, Q92743)	pKd (Inadl_10, Q8NI35)	pKd (PDZRN4_1, Q6ZMN7)	pKd (LNX1_3, Q8TBB1)	pKd (MAGI2_4, Q86UL8)	pKd (FRMPD3, Q5JV73)	pKd (DLG4_2, P78352)	pKd (PDZD7_3, Q9H5P4)	pKd (IL16_1, Q14005)	pKd (MPDZ_5, O75970)	pKd (GRIP1_4, Q9Y3R0)	pKd (IL16_4, Q14005)	pKd (NHERF3_3, Q5T2W1)	pKd (DLG2_2, Q15700)	pKd (HTRA3, P83110)	pKd (PDLIM1, O00151)	pKd (LDB3, O75112)	other results
QFTLRHWLKV [SLC6A3, Q01959]	below the threshold	below the threshold	below the threshold	4.45	below the threshold	below the threshold	3.83	3.5	below the threshold	below the threshold	below the threshold	below the threshold	below the threshold	below the threshold	below the threshold	below the threshold	below the threshold	below the threshold	below the threshold	below the threshold	pKd (APBA2_2, Q99767): below the threshold; pKd (ARHGEF12, Q9NZN5-2): below the threshold; pKd (LIN7C, Q9NUP9): below the threshold; pKd (AHNAK1, Q09666): below the threshold; pKd (LAP2, Q96RT1): below the threshold; pKd (LIN7B, Q9HAP6): below the threshold; pKd (APBA3_1, O96018): below the threshold; pKd (Inadl_5, Q8NI35): 3.62; pKd (MAGI2_3, Q86UL8): below the threshold
DSATVRTYSC [PPFIA1, Q13136]	below the threshold	below the threshold	4.15	4.27	below the threshold	below the threshold	below the threshold	below the threshold	below the threshold	below the threshold	below the threshold	below the threshold	below the threshold	below the threshold	3.54	below the threshold	below the threshold	4.65	below the threshold	below the threshold	pKd (APBA2_2, Q99767): below the threshold; pKd (ARHGEF12, Q9NZN5-2): below the threshold; pKd (LIN7C, Q9NUP9): below the threshold; pKd (AHNAK1, Q09666): below the threshold; pKd (LAP2, Q96RT1): below the threshold; pKd (LIN7B, Q9HAP6): 3.7; pKd (APBA3_1, O96018): below the threshold; pKd (Inadl_5, Q8NI35): below the threshold; pKd (MAGI2_3, Q86UL8): below the threshold
PASAKGPLGV [CLDN19, Q8N6F1]	below the threshold	below the threshold	below the threshold	below the threshold	below the threshold	below the threshold	below the threshold	below the threshold	below the threshold	below the threshold	below the threshold	below the threshold	below the threshold	below the threshold	3.55	below the threshold	below the threshold	below the threshold	below the threshold	below the threshold	pKd (APBA2_2, Q99767): below the threshold; pKd (ARHGEF12, Q9NZN5-2): below the threshold; pKd (LIN7C, Q9NUP9): below the threshold; pKd (AHNAK1, Q09666): below the threshold; pKd (LAP2, Q96RT1): below the threshold; pKd (LIN7B, Q9HAP6): below the threshold; pKd (APBA3_1, O96018): below the threshold; pKd (Inadl_5, Q8NI35): below the threshold; pKd (MAGI2_3, Q86UL8): below the threshold
PAPGQHTTQI [STK16, O75716]	3.56	below the threshold	below the threshold	below the threshold	below the threshold	below the threshold	below the threshold	3.5	below the threshold	3.87	5	below the threshold	below the threshold	below the threshold	below the threshold	below the threshold	3.79	below the threshold	below the threshold	below the threshold	pKd (APBA2_2, Q99767): below the threshold; pKd (ARHGEF12, Q9NZN5-2): 4.38; pKd (LIN7C, Q9NUP9): 3.98; pKd (AHNAK1, Q09666): below the threshold; pKd (LAP2, Q96RT1): below the threshold; pKd (LIN7B, Q9HAP6): 3.92; pKd (APBA3_1, O96018): below the threshold; pKd (Inadl_5, Q8NI35): below the threshold; pKd (MAGI2_3, Q86UL8): below the threshold
QSPPNIYYKV [EFNB3, Q15768]	below the threshold	below the threshold	4.41	4.49	below the threshold	below the threshold	4.47	3.69	below the threshold	3.54	below the threshold	below the threshold	below the threshold	below the threshold	3.76	below the threshold	below the threshold	3.53	below the threshold	below the threshold	pKd (APBA2_2, Q99767): below the threshold; pKd (ARHGEF12, Q9NZN5-2): below the threshold; pKd (LIN7C, Q9NUP9): below the threshold; pKd (AHNAK1, Q09666): below the threshold; pKd (LAP2, Q96RT1): below the threshold; pKd (LIN7B, Q9HAP6): below the threshold; pKd (APBA3_1, O96018): below the threshold; pKd (Inadl_5, Q8NI35): below the threshold; pKd (MAGI2_3, Q86UL8): below the threshold
